Experimental data taken from patent publication US20260102487A1 (Amgen, published 2026).

T1: human IL-2Rβγ receptor on primary human T-cells and NK-cells (PBMCs) (human, UniProt P14784 27-551; P31785 23-369)
T1 construct: Endogenous receptor on primary cells; also called dimeric IL-2Rβγ receptor complex
T1 sequence 1: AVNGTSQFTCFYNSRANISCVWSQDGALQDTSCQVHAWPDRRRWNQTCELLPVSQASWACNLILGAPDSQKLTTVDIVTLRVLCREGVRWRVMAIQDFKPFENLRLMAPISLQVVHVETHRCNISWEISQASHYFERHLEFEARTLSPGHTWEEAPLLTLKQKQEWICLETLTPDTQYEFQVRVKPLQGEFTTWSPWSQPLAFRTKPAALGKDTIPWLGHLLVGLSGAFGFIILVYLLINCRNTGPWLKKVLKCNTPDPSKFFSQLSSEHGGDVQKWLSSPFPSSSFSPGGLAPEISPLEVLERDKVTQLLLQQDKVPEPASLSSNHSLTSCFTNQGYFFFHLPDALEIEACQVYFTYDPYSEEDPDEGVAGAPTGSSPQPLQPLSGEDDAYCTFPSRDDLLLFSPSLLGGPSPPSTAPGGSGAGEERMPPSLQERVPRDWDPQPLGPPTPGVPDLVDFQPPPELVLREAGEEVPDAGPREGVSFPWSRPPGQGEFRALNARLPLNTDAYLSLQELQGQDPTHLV
T1 sequence 2: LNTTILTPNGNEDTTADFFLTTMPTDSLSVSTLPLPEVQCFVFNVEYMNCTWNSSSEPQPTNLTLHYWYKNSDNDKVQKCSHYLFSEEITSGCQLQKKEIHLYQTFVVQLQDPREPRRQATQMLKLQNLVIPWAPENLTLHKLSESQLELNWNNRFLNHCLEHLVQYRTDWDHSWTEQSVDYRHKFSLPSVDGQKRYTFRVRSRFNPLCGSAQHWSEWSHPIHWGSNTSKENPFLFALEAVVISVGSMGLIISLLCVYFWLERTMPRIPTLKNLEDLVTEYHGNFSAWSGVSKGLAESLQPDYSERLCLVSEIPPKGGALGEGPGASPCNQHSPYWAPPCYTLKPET


Assays:
[1] = target: T2, cynomolgus IL-2Rβγ receptor on cynomolgus T-cells (PBMCs) (cynomolgus); experiment: flow cytometry cell binding on cynomolgus CD8+ T-cells (PBMC), gMFI as fold over secondary antibody only
T2 construct: whole, on cells; Endogenous receptor on primary cynomolgus cells
Protocol: (§1) All washes and dilutions of cells, antibodies, and reagents were performed using flow buffer (1X PBS, 1% BSA, 0.1% NaN3, pH 7.4). Staining was performed in a round-bottom 96-well plate (Corning) seeded at 100,000 cells/well, and all incubations were performed at 4° C. or on ice. […] The cells were washed twice with 200 μL flow buffer. The cells were then incubated for 30 minutes with detection antibody (Goat F(ab′)2 Anti-Human IgG-PE, Southern Biotech) at 0.625 μg/mL in flow buffer. Following 2 more washes, the cells were resuspended in a final volume of 150 μL of flow buffer. The cells were analyzed on a BD FACSCelesta or a Guava easyCyte 8-HT flow cytometer. At least 3000 events were collected, and PE geometric mean fluorescence intensity was plotted as a fold over background (cells incubated with secondary detection antibody only). In some secondary screens involving human or cynomolgus PBMCs, an additional CD4 antibody (BioLegend) and/or CD8 antibody (BioLegend) was included to further characterize cell binding.

[2] = target: T1, human IL-2Rβγ receptor on primary human …; experiment: flow cytometry cell binding on human CD8+ T-cells (PBMC), gMFI as fold over secondary antibody only
Protocol: as §1

Row | Binder | EC50 (read off the curve) [1] [nM] | EC50 (read off the curve) [2] [nM]
1 | BsAb-2 (IL2RB_F09G**IL2RG_F16B) (bispecific antibody, human IgG4, V domains shown, Heavy chain-only bispecific on silenced, stabilised human IgG4 Fc, knobs-into-holes, no light chains; not shown: C-terminal His-tag on the knob chain) V domain 1: QVQLQESGPGLVKSSETLSLTCTVSGGSISSSDWWSWVRQPPGKGLEWIGEIDHSGSTNYNPSLMSRVTISVDKSKNQFSLKLSSVTAADTAVYFCARGSWELTDAFDIRGQGTLVTVSS V domain 2: QVQLVESGGGLVKPGGSLRLSCAASGFTFSDYYMSWIRQAPGKGLEWVSYISSSGSTIYYADSVKGRFTISRDNAKNSLYLQMNSLRAEDTAVYYCARGDAVSITGDYRGQGTLVTVSS | ~2 | ~10
2 | BsAb-6 (IL2RB_F18E**IL2RG_F16A) (bispecific antibody, human IgG4, V domains shown, Heavy chain-only bispecific on silenced, stabilised human IgG4 Fc, knobs-into-holes, no light chains; not shown: C-terminal His-tag on the knob chain) V domain 1: QVQLVESGGGVVQPGRSLRLSCAASGFTFSSYGMHWVRQAPGKEREWVAVISYDGSNKYYTDSVKGRFTISRDNSKNTLYLEMNSLRAEDTAVYYCARDLDYDVLTGDPVGGFDIWGQGTLVTVSS V domain 2: QVQLVESGGGLVKPGGSLRLSCAASGFTFSDYYMSWIRQAPGKGLEWVSSISSSGDTIYYADSVQGRFTLSRDNAENSLFLQMNSLRAEDTAVYYCARGDAVSITGDYRGQGTLVTVSS | ~20 | ~5
3 | BsAb-4 (IL2RB_F09G**IL2RG_F18A) (bispecific antibody, human IgG4, V domains shown, Heavy chain-only bispecific on silenced, stabilised human IgG4 Fc, knobs-into-holes, no light chains; not shown: C-terminal His-tag on the knob chain) V domain 1: QVQLQESGPGLVKSSETLSLTCTVSGGSISSSDWWSWVRQPPGKGLEWIGEIDHSGSTNYNPSLMSRVTISVDKSKNQFSLKLSSVTAADTAVYFCARGSWELTDAFDIRGQGTLVTVSS V domain 2: QVQLVESGGDLVKPGGSLRLSCAASGFTFSDYYMSWLRQAPGKELEWVSHISSSGTTTYYADSVEGRFTITRDNAKNSLYLQMNSLRAEDTAVYYCARGAAVAPGFDSRGQGTLVTVSS | ~10 | 
4 | BsAb-3 (IL2RB_F09G**IL2RG_F16C) (bispecific antibody, human IgG4, V domains shown, Heavy chain-only bispecific on silenced, stabilised human IgG4 Fc, knobs-into-holes, no light chains; not shown: C-terminal His-tag on the knob chain) V domain 1: QVQLQESGPGLVKSSETLSLTCTVSGGSISSSDWWSWVRQPPGKGLEWIGEIDHSGSTNYNPSLMSRVTISVDKSKNQFSLKLSSVTAADTAVYFCARGSWELTDAFDIRGQGTLVTVSS V domain 2: QVQLVESGGGLVKPGGSLRLSCAASGFTFNDYYMSWIRQAPGKGLEWVSHISSSGSTIYYADSVKGRFTVSRDNANNSLYLQMHSLRAEDTAVYYCARGDAVSITGDYRGQGTLVTVSS | ~10 | ~5
5 | BsAb-5 (IL2RB_F09K**IL2RG_F16B) (bispecific antibody, human IgG4, V domains shown, Heavy chain-only bispecific on silenced, stabilised human IgG4 Fc, knobs-into-holes, no light chains; not shown: C-terminal His-tag on the knob chain) V domain 1: QVQLQESSPGLVKPSETLSLTCTVSGGSISSSNWWSWVRQPPGKGLEWIGEISHSGSTNYNPSLKSRVTISVDKSKNQFSLRLSSVTAADTAVYFCGRGSWELTDAFDIRGQGTLVTVSS V domain 2: QVQLVESGGGLVKPGGSLRLSCAASGFTFSDYYMSWIRQAPGKGLEWVSYISSSGSTIYYADSVKGRFTISRDNAKNSLYLQMNSLRAEDTAVYYCARGDAVSITGDYRGQGTLVTVSS | ~4 | 
6 | BsAb-1 (IL2RB_F09C**IL2RG_F16A) (bispecific antibody, human IgG4, V domains shown, Heavy chain-only bispecific on silenced, stabilised human IgG4 Fc, knobs-into-holes, no light chains; not shown: C-terminal His-tag on the knob chain) V domain 1: QVQLQESGPGLVKPSGTLSLTCAVSGGSISSSDWWSWVRQPPGKGLEWIGEIDHSGSTNYNPSLMSRVTISVDKSKNQFSLKLSSVTAADTAVYFCGRGSWELSDAFDIRGQGTLVTVSS V domain 2: QVQLVESGGGLVKPGGSLRLSCAASGFTFSDYYMSWIRQAPGKGLEWVSSISSSGDTIYYADSVQGRFTLSRDNAENSLFLQMNSLRAEDTAVYYCARGDAVSITGDYRGQGTLVTVSS | ~20 | 
